Target: T1, human ubiquitin conjugating enzyme E2 protein Ubc-7 (human, UniProt P60604 1-165, limits assumed)
T1 construct: also called Homo sapiens ubiquitin-conjugating enzyme E2G 2; UCE E2 Ubc7
T1 sequence: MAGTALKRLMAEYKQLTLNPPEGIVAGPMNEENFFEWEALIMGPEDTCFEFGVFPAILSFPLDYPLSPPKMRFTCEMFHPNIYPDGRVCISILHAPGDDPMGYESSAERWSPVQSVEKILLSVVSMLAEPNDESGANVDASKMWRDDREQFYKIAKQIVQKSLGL
Assay: crystal structure of the gp78-Ubc7 fusion protein (SEQ ID No. 12) solved to 2.2 Å

B1: gp78 E3 RING motif with flanking sequence (amino acid residues 322 to 393 of the full-length gp78 E3 protein) (other)
chain: MEARFAVATPEELAVNNDDCAICWDSMQAARKLPCGHLFHNSCLRSWLEQDTSCPTCRMSLNIADNNRVREE
notes: also called gp78 RING; gp78RING motif
- binding result: binds
